Reference: patent US20060153778A1 (MannKind Corporation, priority 2005, published 2006)
Read-outs that look alike come from different tables or passages of the source.

Assays:
[1] = in vivo
[2] = in vivo; remark: listed apart in the source
[3] = Glucose clamp study after inhalation of Technosphere/Insulin: glucose infusion rate (biological action), tolerability; format: in vivo, human; conditions: for T-50% (time from baseline to half-maximal after passing Tmax), calculated on glucose infusion rate / Tmax, calculated on glucose infusion rate / T50% (time from baseline to half-maximal values), calculated on glucose infusion rate: glucose clamp; for T50% (time from baseline to half-maximal values), calculated on glucose infusion rate: healthy male volunteers
Excerpt: (§1) The volunteers were in good health, as judged by physical examination, age: 18 to 40 years, body mass index: 18 to 26 kg/m^2, capability to reach peak inspiratory flow of ≧4 L/sec measured by a computer assisted spirometry and a FEV1 (FEV1=forced expiratory volume in one second) equal to or greater than 80% of predicted normal.
(§2) On the morning of the study days, the subjects came to the hospital (fasting, except for water, from midnight onward) at 7:30 a.m. The subjects were restricted from excessive physical activities and an intake of alcohol for 24 hours before each treatment day. They were randomly assigned to one of the three treatment arms. […] Blood glucose was kept constant at a level of 90 mg/dL throughout the glucose clamp by a glucose controlled infusion system (BIOSTATOR™, Life Science Instruments, Miles Laboratories, Elkhart, Ind.). The glucose clamp algorithm was based on the actual measured blood glucose concentration and the grade of variability in the minutes before to calculate the glucose infusion rates for keeping the blood glucose concentration constant. […] The duration of the clamp experiment was 6 hours from time point 0. Glucose infusion rates, blood glucose, serum insulin and C-peptide were measured.

[4] = Glucose clamp study: serum insulin concentrations, bioavailability; format: in vivo, human
Excerpt: as §1
as §2, with “0.” for “0. Glucose infusion rates, blood glucose, serum insulin and C-peptide were measured.”

[5] = Time to peak blood concentration and uptake rate after pulmonary delivery (general statements)

O=C(O)/C=C/C(=O)NCCCC[C@@H]1NC(=O)[C@H](CCCCNC(=O)/C=C/C(=O)O)NC1=O [FDKP, fumaryl diketopiperazine]
Transit from the lungs [1]: kinetics similar to that of insulin

CCNC(=O)[C@@H]1CCCN1C(=O)[C@H](CCCNC(=N)N)NC(=O)[C@H](CC(C)C)NC(=O)[C@@H](CC(C)C)NC(=O)[C@H](Cc1ccc(O)cc1)NC(=O)[C@H](CO)NC(=O)[C@H](Cc1c[nH]c2ccccc12)NC(=O)[C@H](Cc1c[nH]cn1)NC(=O)[C@@H]1CCC(=O)N1 [leuprolide]
Time to peak blood concentrations [2]: 3 to 10 min

insulin: insulin given as 5 IU intravenous or 10 IU subcutaneous injection, or by the pulmonary route without fumaryl diketopiperazine; comparator
T to baseline, calculated on glucose infusion rate ([3]; 5 IU insulin intravenous, clamp duration 6 hours): 240 min | T-50% (time from baseline to half-maximal after passing Tmax), calculated on glucose infusion rate ([3]; 5 IU insulin intravenous): 1.37 h | Tmax, calculated on glucose infusion rate ([3]; 5 IU insulin intravenous): 0.233 h | T50% (time from baseline to half-maximal values), calculated on glucose infusion rate ([3]; 5 IU insulin intravenous): 9 min | T-50% (time from baseline to half-maximal after passing Tmax), calculated on glucose infusion rate ([3]; 10 IU insulin subcutaneous): 4 h | Tmax, calculated on glucose infusion rate ([3]; 10 IU insulin subcutaneous): 2.72 h | T50% (time from baseline to half-maximal values), calculated on glucose infusion rate ([3]; 10 IU insulin subcutaneous): 60 min | T50% (time from baseline to half-maximal values), calculated on insulin levels ([4]; 5 IU insulin intravenous): 2 min | T to baseline, calculated on insulin levels ([4]; 5 IU insulin intravenous): 60 min | T-50% (time from baseline to half-maximal after passing Tmax), calculated on insulin levels ([4]; 5 IU insulin intravenous): 0.1 h | Tmax, calculated on insulin levels ([4]; 5 IU insulin intravenous): 0.083 h | T to baseline, calculated on insulin levels ([4]; 10 IU insulin subcutaneous): 360 min | T-50% (time from baseline to half-maximal after passing Tmax), calculated on insulin levels ([4]; 10 IU insulin subcutaneous): 4.17 h | Tmax, calculated on insulin levels ([4]; 10 IU insulin subcutaneous): 2.02 h | Time to peak blood concentrations ([5]; pulmonary route without fumaryl diketopiperazine): 25 to 60 min | Time to peak blood level ([5]; subcutaneous injection): 30 to 90 min

parathyroid hormone 1-34: peptide complexed with FDKP for pulmonary delivery
Time to peak blood concentrations [2]: 3 to 10 min

salmon calcitonin
Time to peak blood concentrations [2]: 3 to 10 min
